This is an account of results in the supplement of paper PMC12455559.

Series [1] can be described thus: melting temperature (DSF); higher = more thermostable. On the procedure: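 Candidate PET hydrolases were expressed in E. coli C41(DE3) in 2 mL autoinduction cultures in 24-deep-well plates, Ni-bead purified and released by SUMO protease cleavage on an OT-2 robot. Yield per well was measured by BCA; values below 25 ug (0.1 mg/mL) are below the detection threshold. Melting temperature was measured by differential scanning fluorimetry with Sypro Orange, ramping from 25 C at 0.3 C/step.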

Series [2] can be described thus: PET hydrolysis, aromatic products released after 48 h (umol product/mg enzyme); higher = more PET depolymerization activity. Put shortly: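 The measure of PET hydrolysis activity is aromatic product released into the supernatant, given per mg enzyme. Nickel-purified, SUMO-cleaved enzyme without tag was added at 5 μg (50 μL) to 3.5 mg amorphous PET film or crystalline PET powder in 450 μL of citrate, phosphate or glycine buffer spanning pH 4.5 to 8.5. After 48 h at 40 or 60 °C in sealed plates without shaking, absorbance at 260 and 280 nm was taken against buffer blanks.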

The nature of series [3]: purified protein yield per well (BCA); higher = higher soluble expression. The procedure, abridged: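 Purified protein yield per well is reported, as measured by the Pierce Rapid Gold BCA kit. The enzymes came from E. coli C41(DE3) autoinduction cultures of 2 mL with 100 µg/mL kanamycin, held at 37 °C for 2 h and 18 °C for 40 h, then lysed and purified on Ni-charged magnetic beads with SUMO protease release. The detection threshold is 25 ug (0.1 mg/mL), and lower values are under it.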

The mark [4] stands for this setting: substrate: cryPow, 40 °C, pH 4.5.
The mark [5] stands for this setting: substrate: cryPow, 40 °C, pH 5.5.
[6] abbreviates: substrate: cryPow, 40 °C, pH 6.5.
Where [7] appears, read: substrate: cryPow, 40 °C, pH 7.5.
Setting [8] is: substrate: cryPow, 60 °C, pH 4.5.
Setting [9] is: substrate: cryPow, 60 °C, pH 5.5.
Setting [10] is: substrate: cryPow, 60 °C, pH 6.5.
Setting [11] is: substrate: cryPow, 60 °C, pH 7.5.
The mark [12] stands for this setting: substrate: aFilm, 40 °C, pH 4.5.
[13] abbreviates: substrate: aFilm, 40 °C, pH 5.5.
The mark [14] stands for this setting: substrate: aFilm, 40 °C, pH 6.5.
[15] abbreviates: substrate: aFilm, 40 °C, pH 7.5.
The mark [16] stands for this setting: substrate: aFilm, 60 °C, pH 4.5.
Where [17] appears, read: substrate: aFilm, 60 °C, pH 5.5.
Where [18] appears, read: substrate: aFilm, 60 °C, pH 6.5.
[19] abbreviates: substrate: aFilm, 60 °C, pH 7.5.

In turn, “ADNPFQRGPNPTVASVAATRGTFATAQTSVPAGNGFGGGVIYYPTDTSQGTFGGVAIVPGYSALFANEEAWMGPWLASFGFVVIGIETNSRTDSADARGTQLLAALDYLTQRSSVRDRVDPNRLSVVGHSAGGAGVLSALLRRPSLKAGVGLAPGSPVGNYDLYNDRVPTMFISGQRDTTVTQSYLNGLYSTLPATTPSAWVEITGVDHLFATRANTTEMRVLIPWLKIWVDNDTRYTQFLCPLADSSNISMYRNKCPYVPPGGSSPSPSASPSSSPSPSPSSSPSPSPSPSPSPSPSPSPSPTTSPSPPPPGACSAAYRTVNSWPGGYQGEVTVTAGGSAVNGWTVRWTLGSGQTITQLWNGTLSTSGSAVTVKNASFNGSIPASGSATFGFLATGTPSAPSLSCTSP [ESM007]” came in with a melting temperature in series [1] of 59.2 C. For the same sequence, the PET hydrolysis in series [2] (setting [4]), in series [2] (setting [5]), in series [2] (setting [6]), in series [2] (setting [7]), in series [2] (setting [8]) and in series [2] (setting [9]) was below 3 each time. Moreover, the PET hydrolysis in series [2] (setting [10]) and in series [2] (setting [11]) was below 3 in each case. Further, the “purified protein yield per well” value in series [3] amounted to 424 µg.
As for “ADNPFQRGPNPTVASVAATRGTFATAQTSVPAGNGFGGGVVYYPTDTSQGTFGGVAIVPGYSALFADEEAWMGPWLASFGFVVIGIETNSRTDSADARGTELLAALDYLTQRSPVRDRVDPNRLSVVGHSAGGAGVLSALLRRPSLKAGVGLAPGSPVGNYDLYSDRVPTMFISGQRDTTVTQSYLNGLYSTLPATTPSAWVEITGVDHLFATRANTTEMRVLIPWLKIWVDNDTRYTQFLCPLADSTGISMYRDKCPYVPPGGSSPSPSASPSSTPSRSPSPSPSPSPSPSPSPSPSPSPSPSPSASPSLPPPGACVAEYRTMNSWPGGYQAMVTVTAGGTAVNGWTVRWTLGGGQTISQLWNGTLSTSGSAVTVKNASYNGSIPASGSATFGFLATGTPSTPSLTCTSP [ESM036]”, the melting temperature in series [1] was determined as 49.6 C. Moreover, the PET hydrolysis in series [2] (setting [12]), in series [2] (setting [13]), in series [2] (setting [14]), in series [2] (setting [15]), in series [2] (setting [16]) and in series [2] (setting [17]) was below 3 in each case. Further, the PET hydrolysis in series [2] (setting [18]), in series [2] (setting [19]), in series [2] (setting [4]), in series [2] (setting [5]), in series [2] (setting [6]) and in series [2] (setting [7]) was below 3 throughout. The PET hydrolysis in series [2] (setting [8]), in series [2] (setting [9]), in series [2] (setting [10]) and in series [2] (setting [11]) was below 3 in each case. For the same sequence, the “purified protein yield per well” value in series [3] worked out at 376 µg.
Consider “ADNPFQRGPNPTVESVAATRGTFATAQTSVPAGNGFGGGVVYYPTDTSQGTFGGVAIVPGYSALFADEEAWMGPWLASFGFVVIGIETNSRTDSADARGTQLLAALDYLTQRSPVRDRVDPNRLSVVGHSAGGAGVLSALLRRPSLKAGVGLAPGSPVGNYDLYDDRVPTMFISGQRDTTVTRSYLNGLYGTLPATTPSAWVEITGVDHLFATRANTTEMRVLIPWLKIWVDDDTRYTRFLCPLADSTGISMYRDTCPYVPPGGSSPSPSASPSPSPSPSPSPSPSPSPSPSPSPSPSPSPSASPSASPSPPPPGACAAEYHTVNSWPGGYQASVTVTAGASAVQGWTVRWTLGSGQSITQLWNGTLSTSGSAVTVKNASYNGTIPASGSATFGFLATGTPSAPPLTCTSP [ESM067]”, for which, in series [1], the melting temperature came to 57.1 C. In addition, the PET hydrolysis in series [2] (setting [12]), in series [2] (setting [13]), in series [2] (setting [14]), in series [2] (setting [15]), in series [2] (setting [16]) and in series [2] (setting [17]) was below 3 each time. The PET hydrolysis in series [2] (setting [18]), in series [2] (setting [19]), in series [2] (setting [4]), in series [2] (setting [5]), in series [2] (setting [6]) and in series [2] (setting [7]) was below 3 each time. Besides, the PET hydrolysis in series [2] (setting [8]), in series [2] (setting [9]), in series [2] (setting [10]) and in series [2] (setting [11]) was below 3 each time. Further, the “purified protein yield per well” value in series [3] was 447 µg.
In the case of “ADNPHQRGPNPTQASITANRGTFATAETSVGGGNGFGAAKIYYPTDTSQGTFGAIAVVPGYTATWAAEGAWMGHWLASFGFVVIGIDTLNRNDFDVARGTQLLAALDYLTQRSSVRTRVDPNRLAVMGHSMGGGGTISAALRWPTLKAAIGLAPYSPSQTTSGLQVPTMLLAGQNDGTSTPASIISLYNNIPASTEKSYLELAGAGHGFPTSNNSVMTRKVIPWMKIFIDQDARYTQFLCPLQDWTGIRSYRSSCPLLPGATFSLAGSASGKCVDVPGRVQTNGTGLIIWTCNGAVNQQWTRTAAGELRIYDNAKCMDANASGPGTRVTINSCNGGNSQKWTVNANGTVTNAASGRCIDTGGTADNAPVVVNTCTGGTSQT [ESM163]”, the melting temperature in series [1] was 58 C. For the same sequence, the PET hydrolysis in series [2] (setting [4]), in series [2] (setting [5]), in series [2] (setting [6]), in series [2] (setting [7]), in series [2] (setting [8]) and in series [2] (setting [9]) was below 3 throughout. Moreover, the PET hydrolysis in series [2] (setting [10]) and in series [2] (setting [11]) was below 3 in each case. For the same sequence, the “purified protein yield per well” value in series [3] stood at 96.4 µg.
Take “ADNPHQRGPNPTQASVAASRGTFATSETSVGGGNGFGGAKIYYPTDTSQGKFAALAVSPGYTATWAAEGAWMGHWLASFGFVIIGIDTISRTDWDVARGDQLLAALDYLTQRSSVRDRVDASRVGVMGHSMGGGGAISAGLKRPSLKVVIGNAPYSASQNLTNMRVPVALLAGQRDTTVTPATTNSYYNQVPATTEKMYLELTNAPHSFPTSNNSVMTRKVIPWMKIFLDQDTRYQQFLCPLLDNTGIRTYRSSCPLIGDPMPPADTYRLAGAASGKCADVEGRSQANGAKLLLWTCNGQTNQRWTQTATGELRVYDNPKCVEAGTSAQGTRVTINACNGGNSQKWTVNANGTVTNAVSGRCLDAAGTADNSPIVVNTCTGAGSQNWSKRS [TEP049]”: the melting temperature in series [1] was 50.8 C. Further, the PET hydrolysis in series [2] (setting [4]), in series [2] (setting [5]), in series [2] (setting [6]), in series [2] (setting [7]), in series [2] (setting [8]) and in series [2] (setting [9]) was below 3 each time. The PET hydrolysis in series [2] (setting [10]) and in series [2] (setting [11]) was below 3 each time. In addition, the “purified protein yield per well” value in series [3] is 68.7 µg.
